In US20210130436A1:

Experiments:
CD28 (human) = CD28 (human) (UniProt P10747); assay: cell-based or functional assay
PD-L1 (human) = PD-L1 (human) (UniProt Q9NZQ7); assay: cell-based or functional assay
Chain of PD-L1 (human) (Q9NZQ7 19-290): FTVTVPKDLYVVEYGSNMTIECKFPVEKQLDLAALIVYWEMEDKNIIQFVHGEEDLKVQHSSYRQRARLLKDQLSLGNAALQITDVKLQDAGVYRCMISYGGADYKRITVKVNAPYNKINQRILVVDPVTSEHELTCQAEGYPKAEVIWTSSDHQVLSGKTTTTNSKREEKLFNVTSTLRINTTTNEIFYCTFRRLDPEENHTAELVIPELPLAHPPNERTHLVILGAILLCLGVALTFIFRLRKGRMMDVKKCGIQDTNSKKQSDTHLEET

Chain of WT CD80 IgV-Fc (inert) (Fc fusion) (chain): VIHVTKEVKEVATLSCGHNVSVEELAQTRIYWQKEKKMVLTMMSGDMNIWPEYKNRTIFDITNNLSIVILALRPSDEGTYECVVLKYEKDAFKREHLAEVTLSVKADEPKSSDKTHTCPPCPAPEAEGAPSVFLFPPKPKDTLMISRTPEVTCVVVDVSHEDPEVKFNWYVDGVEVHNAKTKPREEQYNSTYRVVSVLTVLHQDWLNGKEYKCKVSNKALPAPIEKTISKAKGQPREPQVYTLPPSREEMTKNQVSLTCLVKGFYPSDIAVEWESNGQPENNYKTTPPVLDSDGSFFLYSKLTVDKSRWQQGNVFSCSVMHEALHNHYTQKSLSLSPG

Substance | IL-2 release, primary T cells; K562/OKT3 (No PD-L1); 1 nM (CD28 (human)) | IL-2 release, primary T cells; K562/OKT3 (No PD-L1); 10 nM (CD28 (human)) | IL-2 release, primary T cells; K562/OKT3 (No PD-L1); 100 nM (CD28 (human)) | RLU, Jurkat/IL2 reporter; K562/OKT3 aAPC, FcR Dependent Cross-Linking (No PD-L1); 0.6 nM (CD28 (human)) [RLU] | RLU, Jurkat/IL2 reporter; K562/OKT3 aAPC, FcR Dependent Cross-Linking (No PD-L1); 1.9 nM (CD28 (human)) [RLU] | RLU, Jurkat/IL2 reporter; K562/OKT3 aAPC, FcR Dependent Cross-Linking (No PD-L1); 5.6 nM (CD28 (human)) [RLU] | RLU, Jurkat/IL2 reporter; K562/OKT3 aAPC, FcR Dependent Cross-Linking (No PD-L1); 16.7 nM (CD28 (human)) [RLU] | RLU, Jurkat/IL2 reporter; K562/OKT3 aAPC, FcR Dependent Cross-Linking (No PD-L1); 50 nM (CD28 (human)) [RLU] | RLU, Jurkat/IL2 reporter; K562/OKT3/PD-L1 aAPC, Combination of FcR and/or PD-L1 Dependent Cross-Linking; 0.6 nM (PD-L1 (human)) [RLU] | RLU, Jurkat/IL2 reporter; K562/OKT3/PD-L1 aAPC, Combination of FcR and/or PD-L1 Dependent Cross-Linking; 1.9 nM (PD-L1 (human)) [RLU] | RLU, Jurkat/IL2 reporter; K562/OKT3/PD-L1 aAPC, Combination of FcR and/or PD-L1 Dependent Cross-Linking; 5.6 nM (PD-L1 (human)) [RLU] | RLU, Jurkat/IL2 reporter; K562/OKT3/PD-L1 aAPC, Combination of FcR and/or PD-L1 Dependent Cross-Linking; 16.7 nM (PD-L1 (human)) [RLU] | RLU, Jurkat/IL2 reporter; K562/OKT3/PD-L1 aAPC, Combination of FcR and/or PD-L1 Dependent Cross-Linking; 50 nM (PD-L1 (human)) [RLU] | further results
WT CD80 IgV-Fc (effector) (Fc fusion) | 7170 | 7120 | 6200 | 1410 | 1350 | 1310 | 1210 | 1250 | 662 | 674 | 697 | 673 | 663 | 
WT CD80 IgV-Fc (inert) (Fc fusion) |  |  |  |  |  |  |  |  |  |  |  |  |  | IL-2-luciferase RLU, Jurkat + CHO/OKT3/PD-L1 aAPC, 0.6 nM (CD28 (human)): 458 RLU; IL-2-luciferase RLU, Jurkat + CHO/OKT3/PD-L1 aAPC, 1.9 nM (CD28 (human)): 486 RLU; IL-2-luciferase RLU, Jurkat + CHO/OKT3/PD-L1 aAPC, 5.6 nM (CD28 (human)): 511 RLU; IL-2-luciferase RLU, Jurkat + CHO/OKT3/PD-L1 aAPC, 50 nM (CD28 (human)): 483 RLU; IL-2-luciferase RLU, Jurkat + CHO/OKT3 aAPC (no PD-L1), 5.6 nM (CD28 (human)): 450 RLU; IL-2-luciferase RLU, Jurkat + CHO/OKT3 aAPC (no PD-L1), 16.7 nM (CD28 (human)): 444 RLU; IL-2-luciferase RLU, Jurkat + CHO/OKT3 aAPC (no PD-L1), 50 nM (CD28 (human)): 479 RLU; IL-2-luciferase RLU, Jurkat + K562/OKT3/PD-L1 aAPC, 50 nM (CD28 (human)): 566 RLU; IL-2 release, primary T cells; K562/OKT3/PD-L1; 100 nM (PD-L1 (human)): 52
variant CD80 IgV-Fc (effector) A26E/E35D/M47L/L85Q (Fc fusion) | 6850 | 8320 |  | 1350 | 1380 | 1420 | 1370 | 1330 | 1230 | 1590 | 2000 | 2500 | 2640 | 
variant CD80 IgV-Fc (effector) A71D/L72V/E95K (Fc fusion) |  | 15100 | 21300 | 1820 | 2590 | 4130 | 5550 | 7110 |  | 1540 | 2520 | 3640 | 4030 | 
variant CD80 IgV-Fc (effector) E23G/A26S/E35D/T62N/A71D/L72V/L85M (Fc fusion) | 15400 | 23500 | 27000 | 2020 | 3300 | 5050 | 7010 | 7860 | 1150 | 1950 | 3220 | 4040 | 4140 | 
